Experiment: label from the status in PepcDB records
For “MFCLMSKEYLSWDKFIVTKIPSSVKLDPIIYEYIKKDHLILDIGCGVGKVSLQLAFQGFYVEGIDINETGILAAQDSARKLNLADKAHFRVGDAKDLPYMDDKFDIVIMHGLLTIIVDNSDRNKIIQEAYRVLNPEGHLYIVDFGQTWHSDIYRERYLKDFPITKEEGSFLVYNKDTGEIEFISHHYTEKELIFLLVNNGFKIDYFRDFLLFSGFSFSLYIVQNNKILIILIYFFYLWEKETLQ”, the protein production was “failed”.
With “MFDIGWSELLVIAVVLIVVVGPKDLPPMIRAFGKTMAGLRKMAGDFRTQFDEALKEADMDDVRQTISDVRNLNPTNSLRDAMNPLRQLGNEIKSDLQKATSPSDGLSSTAAPATSEPVAPLVNVPEPDMKLPDSPPAVAAAPAPVAAASVAAEKPKRARAKSIATVEAEAVAAKPKRVSRSKAVATPETTVATNASEPASPKPTVKTIAKKATVKKIAAEKSVAVADAKPAKAARTKAAKPKKDEA” the protein production was “failed”.
In the case of “MFDPKLLPATRKILDLPARLLVRVGVSADQVTITGFIIGLLAVPFLAFELYEFALAAILLNRLCDGLDGAVARRTQLTDAGGFLDIVLDFIFYSAVVFGFLLASPEQNAIASGLLLVTFMGTGSTFLAFACIAGKRGIENPEYPNKSLHYMGGLTEGFETILAFVAFCLWPQHFSVLAYIFAAACWLTAITRIVAGYRTLKQPGAKPESTNV”, the protein production is reported as “not failed”.
For “MFDRLKTMLIKEAIQILRDPKMRFIILVIPAIQITLFGYAVNTDVKHIATAVYDLDNSALSRDLVARLERSGYFDIVQRVQRGDELRDLLDRGKVRAAVQINRGFEENIRAGRTATLPIIVDGTDPSTARIVVSYSVTIAERFSDQILTDYSLRKSGRTTGGNGIELESRAWFNANLESRNYYVPGVIASMVLITTMMLSSMAVVREKEIGTMEQIIVTPIQRWEFIVGKLVPFAIVGYINVTIVTCIALFWFKIPLRGSILLLIGSTALFLMSTLGFGLLISTISRTQQQAMMSSFMFTFPAMLLSGFAFPIENMPTSIQYATYLNPLRYYLVIVRGIFLKGIGLGILWPQLAALALLGSVVLLFAVGRFKKSVG”, the protein production was “failed”.
With “MFDVAVFGSLFLTLFVIMDPPGITPIFLALTAGRPAKVQKRMAFQAVCVAGGVITVFGLLGHQILDYLHVSVPALMIAGGLLLLLIALDLLTGKTDEPKQTKDVNVALVPLGMPLLAGPGAIVSVILAVQKAGSVATQVSVWAAILAIHVVLWVVMRYSLLIIRVIKDGGVVLVTRLAGMMLSAIAVQQIINGVTQVIRGS” the protein production was “failed”.
With “MFEAARFGDEISHTSALGGFLIGAALGIALVATVAIATFTCGFGVALLAGLAAGIGGSLLTAAGEAIGSMFSSPSGTITTASPNVFINSRKAARVEKSIGACDKHPGPVQIAEGSTNVFINSVAAARKGDKLTCGATISGGSDNVIIGGGTYRYLPVDDEVPEWLRTTVDVLMAIAGAAGGIAQLIKAGTQAGMKAVMPCALKFTAGFVAGEVASRYVVEPVARKAIGGLVGNPVDLTTGRKLIPDEIDFSLPGLMPIEWSRFYASDLTVDSVLGRGWVLPWEQSLRRQGAFIYLTDNQGREVPFVTLQPGQRIYNPHEQVYLVCTEGGHYILQTLDNLFFYFGEVPDTNTEVPLQRIENVLGHFLHFTRTPDGTLTDISATGGTRVHLHYDNPLGRLTDIKRVVNNEAVETLTQYRYDEHGQLSAVINRNGDTVRSFSYADGLMVTHSNALGLGCHYRWQTLGDKPRVVEHWTSDGEHYHFRYDLDSRTSWATDVLGRELEVQYNADHRVVASRDYGGERYAIELDEHGNMVGLTLPDGNRLQFKYDEFSRLLEETDPLGRKTQYEYHHLTTLVTQVSYPDGSTWRARFDDKGNLLAEFDALGQMTEYLNSDDGLPHTIIDATYKSKYLWWNTLAQVERYQDCSGKSTYYRYDERQHLVAVTDALNQTTTLARKPDGEVLRISHPDGTTESFTYNVYGQVLSHTDGKGQTTRLMRTARGLPSSRQDAKGQRVRYEYDKAMRLTALVNENNATYSFAYDASDRLSEEVRVDNLTRRFSYDVGGHLTRLDEIGYGENAERPERHTLFERDAIGRLIAKLNSDAQQRFTYDDGDRLLSIERQPTGIGKQLGITEEKLEYAYDLLGRLTKEISPDGTLGYEYDPLSNLTTLTLPDGRKVNHLYYGSGHLHQLNLDGQVISDMERDDLHREVYRTQGKLTSCFGYDAMGRKAWQFASTLPADKLSQVHNTGINTSLLVEHAYNPIHRRYQYDPAGELVRTLDKLRGEIKYEYEANGQLRSRDTGSLIGSEEFRYDPAANRLDFNARQFDKVKDNRIKQWRDQEYRYDPWGNLIEKRSGHSKLQHFSYDCENRLVRAETLVNGKLESQGEYRYDSLGRRIAKQAEINGEVEQKRFLWQGLRMLREETPGQSILYLYEPGSYAPLARVDQVEGEGQKVYYFHTDQIGTPLELTDSEGEIVWQATYRSWGTIETLSIKEVDQNLRFQGQYFDAETGLHYNTFRYYYSEVGRYVTQDPIGLDGGLNLYRYGQNPAGWIDPWGWECWSTARKNYWKAEAKAPTRAYSPTNLVRMAEGKAPKMTVEVISRKTDKISIREYALELHHNDIPQRVGGAGVHDSSNLLALTPWEHEAVDQFRHVGSDLIRVIKGVDVW” the protein production was “failed”.
With “MFENFSPSTMLAIKKYAYWLWLLLALSMPFNYWMAQDSAHPAFWAFSLVIAVFGIGPLLDMLFGRDPANPDEETQTPQLLGQGYYVLLTLATVPVLIGTLVWAAGVFVAFQEWGWLGRLGWILSMGTVMGAVGIVVAHELIHKDSALEQAAGGILLAAVCYAGFKVEHVRGHHVHVSTPEDASSARFGQSVYQFLPHAYKYNFLNAWRLEAVRLRKKGLPVFGWQNELIWWYLLSLALLVGFGWAFGWLGMVFFLGQAFVAVTLLEIINYVEHYGLHRRKGEDGRYERTNHTHSWNSNFVFTNLVLFHLQRHSDHHAFAKRPYQVLRHYDDSPQMPSGYAGMVVLALIPPLWRAVMDPKVRAYYAGEEFQLTAEQSERPAAS” the protein production was “failed”.
With “MFERFTDRARRVIVLAQEEARMLNHNYIGTEHILLGLIHEGEGVAAKALESMGISLDAVRQEVEEIIGQGSQPTTGHIPFTPRAKKVLELSLREGLQMGHKYIGTEFLLLGLIREGEGVAAQVLVKLGADLPRVRQQVIQLLS” the protein production was “not failed”.
For “MFEVTVSKRLLKSGIIVSAMTLISRVLGLVRDVVVANLMGAGASADVFFFANRIPNFLRRLFAEGAFSQAFVPVLTEYHASGDINKTRDLIARASGTLGVLVTIVTLIGVLGSGAVTALFGAGWFLDWLNGGPAAGKFELASLLLKITFPYLWFITFVALSGAILNTLGKFAVSSFTPVFLNVMMILCAWYLSPNLEQPEVGLAIGVFLGGLVQFLFQLPFLIKAGVLVRPKWGWKDPGVVKIRTLMIPALFGVSVSQINLLFDSFVASFLQTGSISWLYYSDRLLEFPLGLFGIAIATVILPALSRKHVDAHSDGFAHTMDWGIRMVTFLGIPAMLGLMVLAKPMLMVLFMRGEFTPSDVEQASYSLLAYSSGLLSFMLIKVLAPGYYSRQDTKTPVRYGIIAMVSNIVLNAIFAWFYGYVGLAVATSMSAFLNMALLYRGLHLQGVYHLTRKTVWFVARLAMAGAVMTGALLWQLDTMATWLSWGISQRALTLTGLIGLGVASYLAILLLLGVRLKDLKAATE”, the protein production was “failed”.
For “MFEYRCSSIDWKPSPVVALATSADGSQVAAAREDGSLELWLVSPGASSWHCQLIIHGDPKSRISHLAWFGTGSKGSSSARLFSSSIDGSISEWDLFDLKQKVVLDSIGFSIWQIALAPISIEAESKEAKLIQNGYLSEKSDDEEESGVEDDSELDELDEKVEALDRHLAAACDDGCVRIYYISESDKLTYYRSLPRVTGRALSVTWSADAQRIFSGSSDGLIRCWDANLCHEVYRITVGLGGLGNGSELCIWSLLSLRYGVLVSGDSTGSVQFWDSQHGTLLQAHSNHKGDVNALAASPSHNRVFSAGADGQVILYKLSGGTSRSQDFKPSSAQKWDYIGCVRAHTHDIRALTVAVPISWEGSIPDRNAKVTSPKQRRKEPAGFSYHKWAHLGVPMLISAGDDAKLYAYSVQEFTKFPPHDICPAPQRVPMQMVHNTVFNQTSLLLVQDSCSLDILRIHISNDSSGRVSTKPLVRVKSKDARKIICSAISNTGSLFAYSDQVRPSLFELKKNKIGKNPWSANRKRLPNLPFAHSMVFSCDCSRLIIAGHDRRIYIVDVGSMELLHSFTPRQEGQEGESPPHEPPITKLYTSSNDDWLAAINCFGDIYVFNLETQRQHWFISRLDGASVAAAGFHPRDNNVIVISTSSNQVFALDVEARELSKWSLLQTFCLPKSYQNFPGEVVGLSFSPSPCSSSVIIYSSRAKCLIEFGKPAEQDEDTDTPCNLSEKLEGKLASISMKLGNGAQKRRLEEYQKESKSNKRKKFEMVTSKHPVLYLRHLSKSAILVIEKPWMEVIKNLDTQPVHRHIFGT”, the protein production was “failed”.
